Experimental data: the supplement of paper PMC5998384

Assays:
HeLa Kyoto [1] = assay: solubility change mitosis vs G1/S (difference of NP-40 vs SDS log2 ratios) (log2 ratio difference); higher = more soluble in mitosis
HeLa Kyoto [2] = assay: solubility in G1/S (NP-40 vs SDS abundance) (log2 ratio); higher = more soluble; details: cell cycle stage: G1/S
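Wherever solubility change mitosis vs G1/S (difference of NP-40 vs SDS log2 ratios) is given: synchronized HeLa Kyoto cells (double thymidine block for G1/S, nocodazole release for mitosis), protein amounts in NP-40 versus SDS lysates quantified by mass spectrometry, three biological replicates.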
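Wherever solubility in G1/S (NP-40 vs SDS abundance) is given: HeLa Kyoto cells arrested at G1/S by double thymidine block, proteins quantified by TMT10plex mass spectrometry in mild NP-40 versus SDS extracts, three biological replicates.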

Sequence of PCBD2 (chain, as listed by the source): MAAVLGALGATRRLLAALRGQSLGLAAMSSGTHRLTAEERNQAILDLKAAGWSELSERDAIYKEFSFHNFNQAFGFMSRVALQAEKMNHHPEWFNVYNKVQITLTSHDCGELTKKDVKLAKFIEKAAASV

| Substance | solubility change mitosis (log2) (HeLa Kyoto [1]) | solubility in G1/S (log2) (HeLa Kyoto [2]) |
| --- | --- | --- |
| MVAWRSAFLVCLAFSLATLVQRGSGDFDDFNLEDAVKETSSVKQPWDHTTTTTTNRPGTTRAPAKPPGSGLDLADALDDQDDGRRKPGIGGRERWNHVTTTTKRPVTTRAPANTLGNDFDLADALDDRNDRDDGRRKPIAGGGGFSDKDLEDIVGGGEYKPDKGKGDGRYGSNDDPGSGMVAEPGTIAGVASALAMALIGAVSSYISYQQKKFCFSIQQGLNADYVKGENLEAVVCEEPQVKYSTLHTQSAEPPPPPEPARI [CD99L2] | -0.147 | -0.143 |
| PCBD2 | 0.0587 | -0.0388 |
| MELENIVANTVLLKAREGGGGNRKGKSKKWRQMLQFPHISQCEELRLSLERDYHSLCERQPIGRLLFREFCATRPELSRCVAFLDGVAEYEVTPDDKRKACGRQLTQNFLSHTGPDLIPEVPRQLVTNCTQRLEQGPCKDLFQELTRLTHEYLSVAPFADYLDSIYFNRFLQWKWLERQPVTKNTFRQYRVLGKGGFGEVCACQVRATGKMYACKKLEKKRIKKRKGEAMALNEKQILEKVNSRFVVSLAYAYETKDALCLVLTLMNGGDLKFHIYHMGQAGFPEARAVFYAAEICCGLEDLHRERIVYRDLKPENILLDDHGHIRISDLGLAVHVPEGQTIKGRVGTVGYMAPEVVKNERYTFSPDWWALGCLLYEMIAGQSPFQQRKKKIKREEVERLVKEVPEEYSERFSPQARSLCSQLLCKDPAERLGCRGGSAREVKEHPLFKKLNFKRLGAGMLEPPFKPDPQAIYCKDVLDIEQFSTVKGVELEPTDQDFYQKFATGSVPIPWQNEMVETECFQELNVFGLDGSVPPDLDWKGQPPAPPKKGLLQRLFSRQDCCGNCSDSEEELPTRL [GRK6] | -0.198 | -0.123 |
| MASLQRKGLQARILTSEEEEKLKRDQTLVSDFKQQKLEQEAQKNWDLFYKRNSTNFFKDRHWTTREFEELRSCREFEDQKLTMLEAGCGVGNCLFPLLEEDPNIFAYACDFSPRAIEYVKQNPLYDTERCKVFQCDLTKDDLLDHVPPESVDVVMLIFVLSAVHPDKMHLVLQNIYKVLKPGKSVLFRDYGLYDHAMLRFKASSKLGENFYVRQDGTRSYFFTDDFLAQLFMDTGYEEVVNEYVFRETVNKKEGLCVPRVFLQSKFLKPPKNPSPVVLGLDPKS [METTL6] | 0.018 | 0.0543 |
| MMFGGYETIEAYEDDLYRDESSSELSVDSEVEFQLYSQIHYAQDLDDVIREEEHEEKNSGNSESSSSKPNQKKLIVLSDSEVIQLSDGSEVITLSDEDSIYRCKGKNVRVQAQENAHGLSSSLQSNELVDKKCKSDIEKPKSEERSGVIREVMIIEVSSSEEEESTISEGDNVESWMLLGCEVDDKDDDILLNLVGCENSVTEGEDGINWSISDKDIEAQIANNRTPGRWTQRYYSANKNIICRNCDKRGHLSKNCPLPRKVRRCFLCSRRGHLLYSCPAPLCEYCPVPKMLDHSCLFRHSWDKQCDRCHMLGHYTDACTEIWRQYHLTTKPGPPKKPKTPSRPSALAYCYHCAQKGHYGHECPEREVYDPSPVSPFICYYDDKYEIQEREKRLKQKIKVLKKNGVIPEPSKLPYIKAANENPHHDIRKGRASWKSNRWPQENKETQKEMKNKNRNWEKHRKADRHREVDEDFPRGPKTYSSPGSFKTQKPSKPFHRSSHYHTSREDKSPKEGKRGKQKKKERCWEDDDNDNLFLIKQRKKKS [ZCCHC7] | 0.926 | -2.02 |
| MTTKNLETKVTVTSSPIRGAGDGMETEEPPKSVEVTSGVQSRKHHSLQSPWKKAVPSESPGVLQLGKMLTEKAMEVKAVRILVPKAAITHDIPNKNTKVKSLGHHKGEFLGQSEGVIEPNKELSEVKNVLEKLKNSERRLLQDKEGLSNQLRVQTEVNRELKKLLVASVGDDLQYHFERLAREKNQLILENEALGRNTAQLSEQLERMSIQCDVWRSKFLASRVMADELTNSRAALQRQNRDAHGAIQDLLSEREQFRQEMIATQKLLEELLVSLQWGREQTYSPSVQPHSTAELALTNHKLAKAVNSHLLGNVGINNQKKIPSTVEFCSTPAEKMAETVLRILDPVTCKESSPDNPFFESSPTTLLATKKNIGRFHPYTRYENITFNCCNHCRGELIAL [BLZF1] | 0.0573 | 0.15 |
| MSQKQEEENPAEETGEEKQDTQEKEGILPERAEEAKLKAKYPSLGQKPGGSDFLMKRLQKGQKYFDSGDYNMAKAKMKNKQLPSAGPDKNLVTGDHIPTPQDLPQRKSSLVTSKLAGGQVE [ENSA] | 0.654 | -0.789 |
| MWCLHCNSERTQSLLELELDSGVEGEAPSSETGTSLDSPSAYPQGPLVPGSSLSPDHYEHTSVGAYGLYSGPPGQQQRTRRPKLQHSTSILRKQAEEEAIKRSRSLSESYELSSDLQDKQVEMLERKYGGRLVTRHAARTIQTAFRQYQMNKNFERLRSSMSENRMSRRIVLSNMRMQFSFEGPEKVHSSYFEGKQVSVTNDGSQLGALVSPECGDLSEPTTLKSPAPSSDFADAITELEDAFSRQVKSLAESIDDALNCRSLHTEEAPALDAARARDTEPQTALHGMDHRKLDEMTASYSDVTLYIDEEELSPPLPLSQAGDRPSSTESDLRLRAGGAAPDYWALAHKEDKADTDTSCRSTPSLERQEQRLRVEHLPLLTIEPPSDSSVDLSDRSERGSLKRQSAYERSLGGQQGSPKHGPHSGAPKSLPREEPELRPRPPRPLDSHLAINGSANRQSKSESDYSDGDNDSINSTSNSNDTINCSSESSSRDSLREQTLSKQTYHKEARNSWDSPAFSNDVIRKRHYRIGLNLFNKKPEKGVQYLIERGFVPDTPVGVAHFLLQRKGLSRQMIGEFLGNRQKQFNRDVLDCVVDEMDFSTMELDEALRKFQAHIRVQGEAQKVERLIEAFSQRYCICNPGVVRQFRNPDTIFILAFAIILLNTDMYSPNVKPERKMKLEDFIKNLRGVDDGEDIPREMLMGIYERIRKRELKTNEDHVSQVQKVEKLIVGKKPIGSLHPGLGCVLSLPHRRLVCYCRLFEVPDPNKPQKLGLHQREIFLFNDLLVVTKIFQKKKNSVTYSFRQSFSLYGMQVLLFENQYYPNGIRLTSSVPGADIKVLINFNAPNPQDRKKFTDDLRESIAEVQEMEKHRIESELEKQKGVVRPSMSQCSSLKKESGNGTLSRACLDDSYASGEGLKRSALSSSLRDLSEAGKRGRRSSAGSLESNVEFQPFEPLQPSVLCS [IQSEC1] | -0.0422 | -0.0654 |
| MMGSKMASASRVVQVVKPHTPLIRFPDRRDNPKPNVSEALRSAGLPSHSSVISQHSKGSKSPDLLMYQGPPDTAEIIKTLPQKYRRKLVSQEEMEFIQRGGPE [MRPS36] | 0.401 | 0.138 |
| MDRDLLRQSLNCHGSSLLSLLRSEQQDNPHFRSLLGSAAEPARGPPPQHPLQGRKEKRVDNIEIQKFISKKADLLFALSWKSDAPATSEINEDSEDHYAIMPPLEQFMEIPSMDRRELFFRDIERGDIVIGRISSIREFGFFMVLICLGSGIMRDIAHLEITALCPLRDVPSHSNHGDPLSYYQTGDIIRAGIKDIDRYHEKLAVSLYSSSLPPHLSGIKLGVISSEELPLYYRRSVELNSNSLESYENVMQSSLGFVNPGVVEFLLEKLGIDESNPPSLMRGLQSKNFSEDDFASALRKKQSASWALKCVKIGVDYFKVGRHVDAMNEYNKALEIDKQNVEALVARGALYATKGSLNKAIEDFELALENCPTHRNARKYLCQTLVERGGQLEEEEKFLNAESYYKKALALDETFKDAEDALQKLHKYMQKSLELREKQAEKEEKQKTKKIETSAEKLRKLLKEEKRLKKKRRKSTSSSSVSSADESVSSSSSSSSSGHKRHKKHKRNRSESSRSSRRHSSRASSNQIDQNRKDECYPVPANTSASFLNHKQEVEKLLGKQDRLQYEKTQIKEKDRCPLSSSSLEIPDDFGGRSEDPRDFYNSYKTQAGSSKTEKPYKSERHFSSRRNSSDSFCRNSEDKIYGYRRFEKDIEGRKEHYRRWEPGSVRHSTSPASSEYSWKSVEKYKKYAHSGSRDFSRHEQRYRLNTNQGEYEREDNYGEDIKTEVPEEDALSSKEHSESSVKKNLPQNLLNIFNQIAEFEKEKGNKSKN [TTC14] | 0.329 | -0.392 |
| MASQLQVFSPPSVSSSAFCSAKKLKIEPSGWDVSGQSSNDKYYTHSKTLPATQGQANSSHQVANFNIPAYDQGLLLPAPAVEHIVVTAADSSGSAATSTFQSSQTLTHRSNVSLLEPYQKCGLKRKSEEVDSNGSVQIIEEHPPLMLQNRTVVGAAATTTTVTTKSSSSSGEGDYQLVQHEILCSMTNSYEVLEFLGRGTFGQVAKCWKRSTKEIVAIKILKNHPSYARQGQIEVSILSRLSSENADEYNFVRSYECFQHKNHTCLVFEMLEQNLYDFLKQNKFSPLPLKYIRPILQQVATALMKLKSLGLIHADLKPENIMLVDPVRQPYRVKVIDFGSASHVSKAVCSTYLQSRYYRAPEIILGLPFCEAIDMWSLGCVIAELFLGWPLYPGASEYDQIRYISQTQGLPAEYLLSAGTKTTRFFNRDPNLGYPLWRLKTPEEHELETGIKSKEARKYIFNCLDDMAQVNMSTDLEGTDMLAEKADRREYIDLLKKMLTIDADKRITPLKTLNHQFVTMTHLLDFPHSNHVKSCFQNMEICKRRVHMYDTVSQIKSPFTTHVAPNTSTNLTMSFSNQLNTVHNQASVLASSSTAAAATLSLANSDVSLLNYQSALYPSSAAPVPGVAQQGVSLQPGTTQICTQTDPFQQTFIVCPPAFQTGLQATTKHSGFPVRMDNAVPIVPQAPAAQPLQIQSGVLTQGSCTPLMVATLHPQVATITPQYAVPFTLSCAAGRPALVEQTAAVLQAWPGGTQQILLPSTWQQLPGVALHNSVQPTAMIPEAMGSGQQLADWRNAHSHGNQYSTIMQQPSLLTNHVTLATAQPLNVGVAHVVRQQQSSSLPSKKNKQSAPVSSKSSLDVLPSQVYSLVGSSPLRTTSSYNSLVPVQDQHQPIIIPDTPSPPVSVITIRSDTDEEEDNKYKPSSSGLKPRSNVISYVTVNDSPDSDSSLSSPYSTDTLSALRGNSGSVLEGPGRVVADGTGTRTIIVPPLKTQLGDCTVATQASGLLSNKTKPVASVSGQSSGCCITPTGYRAQRGGTSAAQPLNLSQNQQSSAAPTSQERSSNPAPRRQQAFVAPLSQAPYTFQHGSPLHSTGHPHLAPAPAHLPSQAHLYTYAAPTSAAALGSTSSIAHLFSPQGSSRHAAAYTTHPSTLVHQVPVSVGPSLLTSASVAPAQYQHQFATQSYIGSSRGSTIYTGYPLSPTKISQYSYL [HIPK1] | -0.386 | 0.478 |
| MTPWLGLIVLLGSWSLGDWGAEACTCSPSHPQDAFCNSDIVIRAKVVGKKLVKEGPFGTLVYTIKQMKMYRGFTKMPHVQYIHTEASESLCGLKLEVNKYQYLLTGRVYDGKMYTGLCNFVERWDQLTLSQRKGLNYRYHLGCNCKIKSCYYLPCFVTSKNECLWTDMLSNFGYPGYQSKHYACIRQKGGYCSWYRGWAPPDKSIINATDP [TIMP3] | -0.0173 | -0.478 |
